The text below walks through data of article PMC10164577, “CAF-1 deposits newly synthesized histones during DNA replication using distinct mechanisms on the leading and lagging strands” (Nucleic Acids Research, 2022).

Residue numbers refer to the chain shown, from its start. Names and notes keep the numbering of the source. Bounds are passed on as bounds.

Settings in all cases: both partners purified
The target of assay [1] is Histones H3–H4 (H3 C110A-H4 E63C), Alexa488-labeled (Xenopus laevis, maleimide AlexaFluor-488 on E63C). The assay can be described thus: fluorescence polarisation; 10 nM Alexa488-labeled H3–H4 with increasing CAF-1, Polϵ, Polδ or RPA; 25 mM TRIS pH 7.5, 300 mM NaCl, 5% glycerol, 1 mM EDTA, 0.01% IGEPAL, 0.01% CHAPS, 1 mM DTT; one site binding curve. On the technique in general: Fluorescence polarisation rises when a labelled molecule tumbles more slowly, as on binding a larger partner.

Assay [2] deals with T1, Chromatin Assembly Factor-1 (CAF-1), wild type (yeast, UniProt Q12495 1-606; Q04199 1-468; P13712 1-422).
T1 construct: Cac1, large subunit of yeast CAF-1; Cac2, subunit of yeast CAF-1; Cac3, subunit of yeast CAF-1; Heterotrimer Cac1-Cac2-Cac3; also called WT CAF-1; copies: + +
The assay can be described thus: SEC; PCNA (30 μM) loaded on nicked pUC19 (0.3 μM) by RFCΔN (0.5 μM) with 10 mM MgCl2 and 3 mM ATP, then CAF-1 (5 μM), 15 min room temperature; Superose 6 increase 3.2/300 in 50 mM HEPES pH 7.5, 200 mM NaCl, 0.01% IGEPAL, 1 mM TCEP, 10 mM MgCl2; fractions on SDS-PAGE.

The target in assay [3] is T1, Chromatin Assembly Factor-1 (CAF-1), …. The assay can be described thus: cross-linking; limiting PCNA: 50 nM AF546-PCNA K164C loaded on nicked pUC19 (15 nM) by full-length RFC (15 nM), CAF-1 titrated 0-1 μM, 100-110 mM NaCl; 0.2% glutaraldehyde; nuclease digestion; SDS-PAGE, PCNA fluorescence, band intensities; affinities estimated.
Assay [4] concerns the target T2, Clamp loader RFC (RFC1-5), full-length (yeast, UniProt P38630 1-861; P40348 1-353; P38629 1-340; P40339 1-323; P38251 1-354).
T2 construct: Rfc1, yeast replication factor C subunit 1; Rfc2, yeast replication factor C subunit 2; Rfc3, yeast replication factor C subunit 3; Rfc4, yeast replication factor C subunit 4; Rfc5, yeast replication factor C subunit 5; also called full-length RFC; copies: + + + +
Described as above.

B1: DNA polymerase delta (Polδ) (complex)
chain 1: MSEKRSLPMVDVKIDDEDTPQLEKKIKRQSIDHGVGSEPVSTIEIIPSDSFRKYNSQGFKAKDTDLMGTQLESTFEQELSQMEHDMADQEEHDLSSFERKKLPTDFDPSLYDISFQQIDAEQSVLNGIKDENTSTVVRFFGVTSEGHSVLCNVTGFKNYLYVPAPNSSDANDQEQINKFVHYLNETFDHAIDSIEVVSKQSIWGYSGDTKLPFWKIYVTYPHMVNKLRTAFERGHLSFNSWFSNGTTTYDNIAYTLRLMVDCGIVGMSWITLPKGKYSMIEPNNRVSSCQLEVSINYRNLIAHPAEGDWSHTAPLRIMSFDIECAGRIGVFPEPEYDPVIQIANVVSIAGAKKPFIRNVFTLNTCSPITGSMIFSHATEEEMLSNWRNFIIKVDPDVIIGYNTTNFDIPYLLNRAKALKVNDFPYFGRLKTVKQEIKESVFSSKAYGTRETKNVNIDGRLQLDLLQFIQREYKLRSYTLNAVSAHFLGEQKEDVHYSIISDLQNGDSETRRRLAVYCLKDAYLPLRLMEKLMALVNYTEMARVTGVPFSYLLARGQQIKVVSQLFRKCLEIDTVIPNMQSQASDDQYEGATVIEPIRGYYDVPIATLDFNSLYPSIMMAHNLCYTTLCNKATVERLNLKIDEDYVITPNGDYFVTTKRRRGILPIILDELISARKRAKKDLRDEKDPFKRDVLNGRQLALKISANSVYGFTGATVGKLPCLAISSSVTAYGRTMILKTKTAVQEKYCIKNGYKHDAVVVYGDTDSVMVKFGTTDLKEAMDLGTEAAKYVSTLFKHPINLEFEKAYFPYLLINKKRYAGLFWTNPDKFDKLDQKGLASVRRDSCSLVSIVMNKVLKKILIERNVDGALAFVRETINDILHNRVDISKLIISKTLAPNYTNPQPHAVLAERMKRREGVGPNVGDRVDYVIIGGNDKLYNRAEDPLFVLENNIQVDSRYYLTNQLQNPIISIVAPIIGDKQANGMFVVKSIKINTGSQKGGLMSFIKKVEACKSCKGPLRKGEGPLCSNCLARSGELYIKALYDVRDLEEKYSRLWTQCQRCAGNLHSEVLCSNKNCDIFYMRVKVKKELQEKVEQLSKW
chain 2: MDALLTKFNEDRSLQDENLSQPRTRVRIVDDNLYNKSNPFQLCYKKRDYGSQYYHIYQYRLKTFRERVLKECDKRWDAGFTLNGQLVLKKDKVLDIQGNQPCWCVGSIYCEMKYKPNVLDEVINDTYGAPDLTKSYTDKEGGSDEIMLEDESGRVLLVGDFIRSTPFITGVVVGILGMEAEAGTFQVLDICYPTPLPQNPFPAPIATCPTRGKIALVSGLNLNNTSPDRLLRLEILREFLMGRINNKIDDISLIGRLLICGNSVDFDIKSVNKDELMISLTEFSKFLHNILPSISVDIMPGTNDPSDKSLPQQPFHKSLFDKSLESYFNGSNKEILNLVTNPYEFSYNGVDVLAVSGKNINDICKYVIPSNDNGESENKVEEGESNDFKDDIEHRLDLMECTMKWQNIAPTAPDTLWCYPYTDKDPFVLDKWPHVYIVANQPYFGTRVVEIGGKNIKIISVPEFSSTGMIILLDLETLEAETVKIDI
chain 3: MDQKASYFINEKLFTEVKPVLFTDLIHHLKIGPSMAKKLMFDYYKQTTNAKYNCVVICCYKDQTIKIIHDLSNIPQQDSIIDCFIYAFNPMDSFIPYYDIIDQKDCLTIKNSYELKVSESSKIIERTKTLEEKSKPLVRPTARSKTTPEETTGRKSKSKDMGLRSTALLAKMKKDRDDKETSRQNELRKRKEENLQKINKQNPEREAQMKELNNLFVEDDLDTEEVNGGSKPNSPKETDSNDKDKNNDDLEDLLETTAEDSLMDVPKIQQTKPSETEHSKEPKSEEEPSSFIDEDGYIVTKRPATSTPPRKPSPVVKRALSSSKKQETPSSNKRLKKQGTLESFFKRKAK
In general, Kd refers to a measure of binding affinity in units of concentration. In turn, B1 had a Kd in assay [1] of at least 300 nM.

B2: Proliferating Cell Nuclear Antigen (PCNA), wild type (natural protein, yeast, UniProt P15873 1-258, looked up)
chain: MLEAKFEEASLFKRIIDGFKDCVQLVNFQCKEDGIIAQAVDDSRVLLVSLEIGVEAFQEYRCDHPVTLGMDLTSLSKILRCGNNTDTLTLIADNTPDSIILLFEDTKKDRIAEYSLKLMDIDADFLKIEELQYDSTLSLPSSEFSKIVRDLSQLSDSINIMITKETIKFVADGDIGSGSVIIKPFVDMEHPETSIKLEMDQPVDLTFGAKYLLDIIKGSSLSDRVGIRLSSEAPALFQFDLKSGFLQFFLAPKFNDEE
notes: PCNA, yeast; homotrimeric clamp; In the SEC experiments loaded onto nicked pUC19 by RFCΔN and ATP
Consider B2, for which the binding result in assay [2] was “binds”.

B3: PCNA K164C, labeled with Alexa Fluor 546 (natural protein, yeast, UniProt P15873 1-258, looked up)
chain: B2 chain with K164C
modifications: labeled with Alexa Fluor 546
notes: PCNA, yeast, K164C; also called fluorescently labeled PCNA; source: made by standard mutagenesis, purified following the wild-type protocol
Regarding B3, the Kd in assay [3] was about 100 nM. Moreover, the binding result in assay [4] is reported as “binds”.
